First the molecules themselves.
B1: mSin3A PAH2 (mammalian Sin3A PAH2 domain, residues 295-385) (domain or fragment, UniProt Q60520 295-385, looked up)
chain: SLQNNQPVEFNHAINYVNKIKNRFQGQPDIYKAFLEILHTYQKEQRNAKEAGGNYTPALTEQEVYAQVARLFKNQEDLLSEFGQFLPDANS
B2: Pf1 200-241 (human Pf1 residues 200-241, wild type) (domain or fragment, UniProt Q96QT6 200-241, looked up)
chain: DYVQPQLRRPFELLIAAAMERNPTQFQLPNELTCTTALPGSS
B3: Pf1 200-241 Phe225Ala (domain or fragment, human, UniProt Q96QT6 200-241, looked up)
chain: B2 chain with F26A
B4: Pf1 200-241 Asn221Glu (domain or fragment, human, UniProt Q96QT6 200-241, looked up)
chain: B2 chain with N22E
B5: Pf1 200-241 Leu212Ala (domain or fragment, human, UniProt Q96QT6 200-241, looked up)
chain: B2 chain with L13A

In assay [1] the target is Pf1 200-241 (human Pf1 residues 200-241, wild type) (human) (UniProt Q96QT6). Kind of assay: ITC. (Isothermal titration calorimetry measures the heat released or taken up as one component is titrated into another.)
Assay [2] has as its target mSin3A PAH2 (Mus musculus) (UniProt Q60520). The settings on record: cited from earlier work.
The target in assay [3] is B4. Kind of assay: ITC.
The target of assay [4] is B2. Kind of assay: ITC.
Assay [5] concerns the target B5. Nature of the assay: ITC.
Assay [6] addresses B3. Nature of the assay: ITC.
The target of assay [7] is MRG15 MRG (human MRG15 MRG domain, residues 155-323) (human, UniProt Q9UBU8-2 155-323). Kind of assay: ITC.
Chain of MRG15 MRG (human MRG15 MRG domain, residues 155-323) (Q9UBU8 194-362): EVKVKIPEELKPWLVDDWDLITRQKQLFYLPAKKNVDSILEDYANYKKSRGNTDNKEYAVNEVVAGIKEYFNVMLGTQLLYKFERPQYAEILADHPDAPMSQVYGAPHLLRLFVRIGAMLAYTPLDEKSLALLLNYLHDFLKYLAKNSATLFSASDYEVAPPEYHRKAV
Assay [8] concerns the target B1. Kind of assay: ITC.

For orientation: Kd means a measure of binding affinity in units of concentration. The term stoichiometry N denotes a count of units in the complex or per binding partner.

Substitutions are numbered along the chain they refer to.

Chain of mSin3A PAH2 (Mus musculus) (Q60520 297-386): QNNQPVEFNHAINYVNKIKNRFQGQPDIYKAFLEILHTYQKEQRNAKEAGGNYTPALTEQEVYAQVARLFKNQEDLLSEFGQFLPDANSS

In assay [1], “mSin3B PAH2 (mammalian Sin3B PAH2 domain) (domain or fragment)” returned a dissociation constant Kd of 2930 nM, a dH of -9.64 kcal/mol and a stoichiometry N of 1.02.

As for Mad1/Mxd1 (from UniProt Q05195), in assay [2], the Kd was 50 nM.

In the case of B1, the dH in assay [3] was -7.67 ± 0.43 kcal/mol; in assay [4], -6.58 ± 0.48 kcal/mol; in assay [5] it was -4.31 ± 0.49 kcal/mol; in assay [6], -4.97 kcal/mol. Further, the “stoichiometry N” value was determined as 1.16 ± 0.08 in assay [3], 0.99 ± 0.05 in assay [4], 1 ± 0.11 in assay [5] and 1.12 in assay [6].

As to B2, in assay [7], the dissociation constant (Kd) was 15 ± 3 nM, the dH was -13.1 ± 0.4 kcal/mol and the “stoichiometry N” value stood at 0.82 ± 0.08. In addition, binding in assay [8] was put at a Kd of 2150 ± 450 nM.

B3 had a Kd in assay [8] of 1650 nM.

For B4, the dissociation constant Kd in assay [8] was determined as 630 ± 50 nM.

In the case of B5, binding in assay [8] was put at a Kd of 2660 ± 460 nM.
